Blank lines part the entries; values can stand above or below the substance they belong to.
Columns and labels:
[1] = biological target: human GC-A (membrane guanylate cyclase A, natriuretic peptide receptor) (human) (UniProt P16066)
[2] = biological target: human GC-B (membrane guanylate cyclase B, natriuretic peptide receptor) (human) (UniProt P20594)
[3] = biological target: human GC-B (membrane guanylate cyclase B, natriuretic peptide receptor) (human) (UniProt P20594); remark: listed apart in the source
[4] = biological target: human GC-A (membrane guanylate cyclase A, natriuretic peptide receptor) (human) (UniProt P16066); remark: listed apart in the source

UniProt P16066, sequence (P16066 33-1061): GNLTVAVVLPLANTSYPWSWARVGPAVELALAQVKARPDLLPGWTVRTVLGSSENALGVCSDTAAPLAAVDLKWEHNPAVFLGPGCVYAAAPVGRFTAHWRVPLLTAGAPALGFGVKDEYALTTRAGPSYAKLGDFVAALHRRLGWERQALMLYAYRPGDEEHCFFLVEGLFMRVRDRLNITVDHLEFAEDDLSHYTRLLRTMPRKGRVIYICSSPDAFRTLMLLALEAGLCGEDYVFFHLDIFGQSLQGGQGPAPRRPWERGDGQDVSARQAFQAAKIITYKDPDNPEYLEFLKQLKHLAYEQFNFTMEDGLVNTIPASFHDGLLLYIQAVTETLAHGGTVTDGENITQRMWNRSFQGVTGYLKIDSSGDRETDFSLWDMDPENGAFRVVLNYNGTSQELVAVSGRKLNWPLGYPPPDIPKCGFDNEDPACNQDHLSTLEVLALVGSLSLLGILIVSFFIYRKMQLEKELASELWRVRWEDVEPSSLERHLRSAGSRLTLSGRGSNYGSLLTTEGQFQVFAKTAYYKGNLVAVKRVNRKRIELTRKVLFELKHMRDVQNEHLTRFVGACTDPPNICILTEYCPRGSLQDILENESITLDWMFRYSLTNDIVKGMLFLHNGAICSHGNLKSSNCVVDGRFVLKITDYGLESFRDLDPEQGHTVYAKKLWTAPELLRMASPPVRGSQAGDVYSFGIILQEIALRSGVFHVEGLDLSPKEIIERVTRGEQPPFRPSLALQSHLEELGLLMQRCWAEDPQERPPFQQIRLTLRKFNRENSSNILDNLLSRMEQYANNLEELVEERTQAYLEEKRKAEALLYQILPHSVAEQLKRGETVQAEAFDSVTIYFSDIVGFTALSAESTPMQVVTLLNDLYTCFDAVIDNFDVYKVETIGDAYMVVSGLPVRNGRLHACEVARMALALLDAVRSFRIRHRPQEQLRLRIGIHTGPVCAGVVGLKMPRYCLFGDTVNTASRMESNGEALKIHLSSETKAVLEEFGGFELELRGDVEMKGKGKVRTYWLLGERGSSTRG
UniProt P20594, sequence (P20594 23-1047): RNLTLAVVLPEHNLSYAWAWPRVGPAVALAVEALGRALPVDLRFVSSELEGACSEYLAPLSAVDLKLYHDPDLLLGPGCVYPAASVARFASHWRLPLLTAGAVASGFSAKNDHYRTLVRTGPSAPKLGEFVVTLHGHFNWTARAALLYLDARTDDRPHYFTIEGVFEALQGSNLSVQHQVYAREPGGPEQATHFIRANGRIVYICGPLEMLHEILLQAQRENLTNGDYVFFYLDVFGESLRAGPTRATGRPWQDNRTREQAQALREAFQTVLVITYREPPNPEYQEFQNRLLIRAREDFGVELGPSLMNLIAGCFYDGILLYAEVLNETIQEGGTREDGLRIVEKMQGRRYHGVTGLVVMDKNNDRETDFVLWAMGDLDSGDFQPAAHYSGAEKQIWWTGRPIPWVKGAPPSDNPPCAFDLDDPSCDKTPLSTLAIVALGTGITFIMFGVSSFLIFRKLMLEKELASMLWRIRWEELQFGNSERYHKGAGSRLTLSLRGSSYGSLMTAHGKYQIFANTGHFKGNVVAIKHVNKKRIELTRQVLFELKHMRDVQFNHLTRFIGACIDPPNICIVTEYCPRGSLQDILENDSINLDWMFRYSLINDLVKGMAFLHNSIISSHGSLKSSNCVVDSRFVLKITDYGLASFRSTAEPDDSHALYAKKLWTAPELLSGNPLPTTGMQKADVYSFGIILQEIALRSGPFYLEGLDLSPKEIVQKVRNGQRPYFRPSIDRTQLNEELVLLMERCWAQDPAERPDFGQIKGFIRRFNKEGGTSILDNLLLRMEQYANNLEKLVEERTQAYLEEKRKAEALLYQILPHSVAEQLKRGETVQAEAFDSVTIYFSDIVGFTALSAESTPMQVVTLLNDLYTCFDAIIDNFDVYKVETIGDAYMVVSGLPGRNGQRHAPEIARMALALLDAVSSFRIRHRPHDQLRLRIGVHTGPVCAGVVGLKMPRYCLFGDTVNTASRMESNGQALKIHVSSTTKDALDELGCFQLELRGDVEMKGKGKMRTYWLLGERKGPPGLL

stimulation of cGMP production in HEK293T cell membranes with increasing ANP, saturation above 4 μM [1]: 10 fold
Substance: human atrial natriuretic factor (1-28) (peptide)

stimulation of cGMP production in HEK293T cell membranes with increasing CNP, saturation above 4 μM [2]: 10 fold
Substance: human c-type natriuretic peptide (1-53)

IC50 of inhibition of guanylate cyclase activity (cGMP synthesis) of GC-B in HEK293T cell membranes activated by 2 μM CNP, increasing RD3; inhibition not complete at 0.5-1 μM RD3 [3]: 29 nM
IC50 of inhibition of guanylate cyclase activity (cGMP synthesis) of GC-A in HEK293T cell membranes activated by 2 μM ANP, increasing RD3; inhibition not complete at 0.5-1 μM RD3 [4]: 24 nM
Substance: retinal degeneration protein 3 (RD3) (from UniProt Q7Z3Z2 1-195) (natural protein)
